The values that follow come from patent US20250297004A1, “NECTIN-4 BINDING AGENTS” (INNATE PHARMA, priority 2022, published 2025).

Numbering of substitutions follows the chain as printed.

Common to all, as to assay: Epitope mapping using Nectin-4 point mutants
Holding throughout (assay type): binding

For test [1], the target named is T1, human Nectin-4 Mutant 4 (A72P/G73N/G75S) (Homo sapiens, UniProt Q96NY8, A72P/G73N/G75S).
T1 construct: expressed in transfected cells; host or cells: HEK293T
T1 sequence (Q96NY8 32-510 A72P/G73N/G75S): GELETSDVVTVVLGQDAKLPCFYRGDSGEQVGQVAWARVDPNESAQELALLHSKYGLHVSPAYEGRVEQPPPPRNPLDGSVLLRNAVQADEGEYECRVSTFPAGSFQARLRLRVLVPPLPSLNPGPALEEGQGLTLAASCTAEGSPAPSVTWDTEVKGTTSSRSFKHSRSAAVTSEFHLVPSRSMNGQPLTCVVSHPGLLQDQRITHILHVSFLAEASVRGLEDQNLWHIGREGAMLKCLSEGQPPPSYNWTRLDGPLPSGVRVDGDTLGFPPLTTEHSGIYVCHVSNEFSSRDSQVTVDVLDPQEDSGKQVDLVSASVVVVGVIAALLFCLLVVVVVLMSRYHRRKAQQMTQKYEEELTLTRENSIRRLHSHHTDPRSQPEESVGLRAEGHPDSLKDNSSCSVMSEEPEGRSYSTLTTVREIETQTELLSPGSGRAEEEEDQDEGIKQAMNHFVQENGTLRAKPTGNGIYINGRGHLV
The source says: (§1) Combined with the published structures of the Nectin-4 domains, Nectin-4 mutations at surface exposed amino acids residues were designed. Nectin-4 domain structure was modelled based on Protein Data Bank reference: 4FRW (domains V et C1). Human Nectin-4 used was NCBI Reference Sequence: NP_112178.2, mouse Nectin-4 used was NCBI Reference Sequence: AAL79833.1, cynomolgus Nectin-4 used was NCBI Reference Sequence: XP_005541277.1, rat Nectin-4 used was NCBI Reference Sequence: NP_001102546.1. The cells expressing the Nectin-4 mutants are then be used for testing anti-Nectin-4 antibodies for loss of binding to different Nectin-4 mutants to identify antibodies that bind to the same site on Nectin-4. […] FIGS. 8A and 8B show different view of a molecular model of the human Nectin-4 protein, indicating the position of substituted residues in mutants 1, 2, 3, 4, 5, 6, 7, 8 and 9.
(§2) Nectin-4 mutants were generated by PCR. The sequences amplified were run on agarose gel and purified using the Macherey Nagel PCR Clean-Up Gel Extraction kit. The purified PCR products generated for each mutant were then ligated into an expression vector, with the ClonTech InFusion system. The vectors containing the mutated sequences were prepared as Miniprep and sequenced. After sequencing, the vectors containing the mutated sequences were prepared as Midiprep using the Promega PureYield™ Plasmid Midiprep System. HEK293T cells were grown in DMEM medium (Invitrogen), transfected with vectors using Invitrogen's Lipofectamine 2000 and incubated at 37° C. in a CO2 incubator for 48 hours prior to testing for transgene expression. The targeted amino acid mutations are shown in Table 13 below, listing the residue present in wild-type Nectin-4/position of residue/residue present in mutant Nectin-4, with position reference being to the Nectin-4 protein with leader peptide shown in SEQ ID NO: 1.
(§3) (+) means that antibodies-Nectin-4 association occurs.

Test [2] has as its target T2, human Nectin-4 Mutant 1 (S58P/G59D/Q61A/N106D/P107A) (Homo sapiens, UniProt Q96NY8, G59D/N106D/P107A/Q61A/S58P).
T2 construct: expressed in transfected cells; host or cells: HEK293T
T2 sequence (Q96NY8 32-510 S58P/G59D/Q61A/N106D/P107A): T1 sequence (Q96NY8 32-510 A72P/G73N/G75S) with S27P, G28D, Q30A, P41A, N42G, S44G, N75D, P76A
Text: as §1, §2, §3

The target in test [3] is T3, human Nectin-4 Mutant 8 (T190A/T191Q/S193A) (Homo sapiens, UniProt Q96NY8, S193A/T190A/T191Q).
T3 construct: expressed in transfected cells; host or cells: HEK293T
T3 sequence (Q96NY8 32-510 T190A/T191Q/S193A): T1 sequence (Q96NY8 32-510 A72P/G73N/G75S) with P41A, N42G, S44G, T159A, T160Q, S162A
Text: as §1, §2, §3

Test [4] deals with T4, human Nectin-4 Mutant 7bis (A72P/G73N/K197T/S199A) (Homo sapiens, UniProt Q96NY8, A72P/G73N/K197T/S199A).
T4 construct: expressed in transfected cells; host or cells: HEK293T
T4 sequence (Q96NY8 32-510 A72P/G73N/K197T/S199A): T1 sequence (Q96NY8 32-510 A72P/G73N/G75S) with S44G, K166T, S168A
Text: as §1, §2, §3

B1: N41 (antibody, V domains shown)
VH: QVQLKQSGPGLVQPSQSLSITCTVSGFSLTNYGVHWVRQSPGKGLEWLGVIWSGGSTDYNAAFISRLSISKDTSKSQVFFKMNSLQADDTAIYYCARELIHAMDNWGQGTSVTVSS
VL: DIQMTQSPASLSVSVGETVTITCRASENIYSNLAWYQQKQGNSPQLLVFAATNLADGVPSRFSGSGSGTQYSLKINSLQSEDFGTYYCQHFWGTPTFGGGTKLEIK
B1: in test [1], the “association with Mutant 4” value is recorded as “+”. The “association with Mutant 1” value in test [2] is recorded as “−”. Besides, the “association with Mutant 8” value in test [3] is “+”. For the same molecule, the “association with Mutant 7bis” value in test [4] is “+”.

B2: 5E7 (antibody, V domains shown)
VH: QVQLQQPGAELVKPGASVKLSCKASGYIFTSYWMHWVKQRPGQGLEWIGEIDPSDSYTNYNQKFKGKATLTLDKSSSTTYMQLSSLTSEDSAVYYCVRGYGNYGDYWGQGTTLTVSSASTKGP
VL: DVVMTQAAFSNPVTLGTSASISCRSSKSLLHSNGITYLYWYLQKPGQSPQLLIYQMSNLASGVPDRFSSSGSGTDFTLRISRVEAEDVGVYYCAQNLELPWTFGGGTKLEIKRTVAAP
On to B2, for which, in test [1], the “association with Mutant 4” value is given as “+”. For the same molecule, the “association with Mutant 1” value in test [2] is “+”. In addition, the “association with Mutant 8” value in test [3] is listed as “+”. The “association with Mutant 7bis” value in test [4] is recorded as “−”.
